Measurements: CN115772221A (BOAOXIN BIOTECHNOLOGY NANJING CO LTD, dated 2023)

Target: T1, 重组人CD47-his蛋白 (ACRO biosystems, cat#CD7-H5227, MW 15.6 kDa) (human, UniProt Q08722 19-139, biotin-labelled in the ELISAs (examples 3.1, 4.1, 4.2); unlabelled in Biacore)
T1 construct: Bought protein; also called 人CD47蛋白; 人CD47-生物素; not shown: His tag
Test: SPR (Biacore T200), antibody captured by goat anti-mouse IgG, CD47-his in solution

T1 sequence (Q08722 19-139 limits assumed): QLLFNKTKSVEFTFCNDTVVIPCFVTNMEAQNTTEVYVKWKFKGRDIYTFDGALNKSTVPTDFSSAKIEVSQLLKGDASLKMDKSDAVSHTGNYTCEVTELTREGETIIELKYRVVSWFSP

binding result: binds
B1: 小鼠抗CD47单克隆抗体1D2 (antibody, V domains shown)
VH: EVQLQQSGPELVKPGASVRISCKTSGYKFTDYNIHWVKQSHGKSLEYIGYIYPYNISSAYNQKFKSKATVTVDNSSSTSYMELRSLTSEDSAVYYCARGGWRAMDYWGQGTSVTVSS
VL: AVLMTQSPLSLPVSLGDQASLSCRSSQNIVHTNGYTYLAWYLQRPGQSPKLLIYKVSNRFSGVPDRFSGSGSGTDFTLRISRVEAEDLGVYYCFQGSHVPWTFGGGTKLEIK
notes: Tested as a mouse monoclonal antibody purified from a hybridoma; 1D2 is the only named antibody of the invention; also called 本发明的单克隆抗体1D2; 本发明的抗体1D2
